Assay results published in PMC11617999.
pKd: −log10 of the molar value. Values joined by “and” are separate entries in the source; they are usually repeats but may differ in a detail not shown here. Equal entries are not always repeated.

Assays:
[1] = target: His-FakB2 (fatty acid binding protein FakB2, Staphylococcus aureus) (S. aureus); assay: BLI; Octet RED96e; His-FakB2 (2 ug/mL) immobilised on Ni-NTA biosensor tips, blocked with 0.1 mg/mL BSA; untagged FakA 1.65-133.3 nM in solution, 5 min association, 10 min dissociation; 50 mM Tris HCl pH 7.4, 150 mM KCl, 1 mM TCEP, 5% glycerol, 10 mM MgCl2; 1:1 binding model (1 FakB2:1 FakA binding site)
[2] = target: FakA H282A, H284A variant (Staphylococcus aureus) (S. aureus); assay: mass photometry; kinetic mass photometry, initial reading (0 min) after dilution to 10 nM; room temperature; 50 mM Tris pH 7.4, 150 mM KCl, 1 mM TCEP, 10 uM ZnSO4; dimer to monomers
[3] = target: FakA H282A, H284A variant (Staphylococcus aureus) (S. aureus); assay: mass photometry; kinetic mass photometry, 20 min after dilution to 10 nM (equilibrium); room temperature; 50 mM Tris pH 7.4, 150 mM KCl, 1 mM TCEP, 10 uM ZnSO4; dimer to monomers
[4] = target: Fatty acid kinase FakA, wild type (Staphylococcus aureus) (S. aureus); assay: mass photometry; kinetic mass photometry, initial reading (0 min) after dilution to 10 nM; room temperature; 50 mM Tris pH 7.4, 150 mM KCl, 1 mM TCEP, 10 uM ZnSO4; dimer to monomers
[5] = target: His-tagged FakB2 (Staphylococcus aureus) (S. aureus); assay: BLI; His-FakB2 (2 ug/mL) immobilised on Ni-NTA biosensor tips, blocked with 0.1 mg/mL BSA; varying concentrations of untagged FakA, 5 min association, 10 min dissociation; 50 mM Tris HCl pH 7.4, 150 mM KCl, 1 mM TCEP, 5% glycerol, 10 mM MgCl2; Octet RED96e; fitted 1:1 and with a bivalent analyte model
[6] = target: Fatty acid kinase FakA, wild type (Staphylococcus aureus) (S. aureus); assay: mass photometry; kinetic mass photometry, 20 min after dilution to 10 nM (equilibrium); room temperature; 50 mM Tris pH 7.4, 150 mM KCl, 1 mM TCEP, 10 uM ZnSO4; dimer to monomers
[7] = target: His-tagged FakB2 (Staphylococcus aureus) (S. aureus); assay: BLI; additional studies as a1 but FakB loaded at a range of 2 to 20 ug/mL
[8] = target: Fatty acid kinase FakA, wild type (Staphylococcus aureus) (S. aureus); assay: SEC-SAXS; size-exclusion chromatography coupled with small-angle X-ray scattering of FakA in solution; AlphaFold dimer model refined with BilboMD, envelopes by DAMMIF and DENSS

**Q.** “FakA (fatty acid kinase, Staphylococcus aureus), untagged (enzyme)” was tested. Which koff [1] did it give?
**A.** 0.000686 s⁻¹

**Q.** And the kon [1]?
**A.** 158000 M⁻¹ s⁻¹

**Q.** “FakA H282A, H284A variant (Staphylococcus aureus) (enzyme)” was tested. Which percent of protein in the dimer peak [2] did it give?
**A.** 63%

**Q.** What about the percent of protein in the dimer peak [3] of the same substance?
**A.** 24%

**Q.** How did the percent of protein in the dimer peak [4] turn out when “Fatty acid kinase FakA, wild type (Staphylococcus aureus) (enzyme)” was run?
**A.** 77%

**Q.** And the pKd [5]?
**A.** 8.36

**Q.** What about the percent of protein in the dimer peak [6] of the same substance?
**A.** 57%

**Q.** What about the pKd [7] of the same substance?
**A.** 7.82 to 8.36 and 7.97

**Q.** What about the stoichiometry N [8] of the same substance?
**A.** 2
